Columns and labels:
Assay in all cases: SPR; 500 nM protein; aptamer immobilized; SPR (Biacore): 145 mM NaCl, 5.4 mM KCl, 0.8 mM MgCl2, 1.8 mM CaCl2, 20 mM Tris-HCl pH 7.6, 0.05% Tween 20; temperature not given
Settings in all cases: protein: recombinant; chain copies: 2
human TGF-β1 (active) = human TGF-β1 (active) (Homo sapiens, UniProt P01137 279-390)
human TGF-β2 = molecular target: T1, human TGF-β2 (Homo sapiens, UniProt P61812 303-414)
T1 sequence: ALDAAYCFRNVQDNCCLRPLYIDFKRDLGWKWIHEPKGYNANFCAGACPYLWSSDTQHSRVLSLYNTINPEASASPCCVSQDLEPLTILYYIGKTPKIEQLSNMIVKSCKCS

mouse TGF-β1 (active) = mouse TGF-β1 (active) (Mus musculus, UniProt P04202 279-390)
mouse TGF-β1 (active), sequence (P04202 279-390): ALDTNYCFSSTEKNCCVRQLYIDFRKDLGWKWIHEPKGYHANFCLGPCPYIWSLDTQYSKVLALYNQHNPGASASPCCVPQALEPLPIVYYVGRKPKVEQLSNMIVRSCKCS

human TGF-β3 = molecular target: T2, human TGF-β3 (Homo sapiens, UniProt P10600 301-412)
T2 sequence: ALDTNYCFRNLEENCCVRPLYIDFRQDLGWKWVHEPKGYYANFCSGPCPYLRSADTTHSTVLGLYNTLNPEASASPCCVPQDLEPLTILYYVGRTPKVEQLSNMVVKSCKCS

human TGF-β1 (active), sequence (P01137 279-390): as the sequence (P04202 279-390) above, with S75A counted along it

B1: APT-β1 (structured_RNA)
RNA: GGCAUAAGGGAGGGGAGACUUGUGGAGGGCAAG
modifications: 2'-fluoro pyrimidines (SELEX with 2'-F-CTP and 2'-F-UTP); parent of APT-β1-OMe without 2'-OMe
Human TGF-β1 (active)
  binding result: binds
Human TGF-β2
  binding result: no binding
Mouse TGF-β1 (active)
  binding result: binds
Human TGF-β3
  binding result: no binding

From PMC9481871, “Anti-TGF-β1 aptamer enhances therapeutic effect of tyrosine kinase inhibitor, gefitinib, on non-small cell lung cancer in xenograft model”
